For test [1], the target named is T1, CED-9 (residues 68-251) (Caenorhabditis elegans, UniProt P41958 68-251).
T1 construct: range 68-251; Form used in isothermal titration calorimetry
T1 sequence (looked up): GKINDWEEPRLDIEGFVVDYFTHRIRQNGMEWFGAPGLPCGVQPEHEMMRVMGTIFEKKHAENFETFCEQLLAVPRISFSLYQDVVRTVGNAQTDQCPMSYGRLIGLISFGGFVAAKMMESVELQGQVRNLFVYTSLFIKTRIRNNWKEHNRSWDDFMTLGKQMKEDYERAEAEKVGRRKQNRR
Briefly: isothermal titration calorimetry (ITC). The text has this:
(§1) The EGL-1/CED-9 complex adopts a compact, globular fold, resembling a single folding unit. CED-9 comprises 7 α helices, with the central hydrophobic helix α5 surrounded by 6 helices and several surface loops. A 27-amino acid fragment of the EGL-1 protein (residues 47-73) forms a single amphipathic α helix, packing against CED-9 helices α2, α3, α4, α5, and α7 over an extended hydrophobic surface cleft. Residues N- or C-terminal to the EGL-1 helix were disordered in the crystals and thus are not involved in binding to CED-9.
Background: In ITC the heat of successive injections is recorded.

For test [2], the target named is T2, CED-9 (residues 68-251) (Caenorhabditis elegans, UniProt P41958).
T2 construct: made in house
T2 sequence (P41958 68-251): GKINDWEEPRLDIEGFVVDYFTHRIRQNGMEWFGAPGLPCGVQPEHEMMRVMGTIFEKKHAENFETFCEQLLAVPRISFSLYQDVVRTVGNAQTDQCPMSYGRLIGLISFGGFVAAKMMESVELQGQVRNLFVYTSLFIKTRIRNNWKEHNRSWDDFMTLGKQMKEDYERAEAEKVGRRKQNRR
Briefly: isothermal titration calorimetry (ITC) of EGL-1 fragments binding to CED-9. The following applies: binding to CED-9 (residues 68-251), read-out: dissociation constant. Also noted: species or system C. elegans.
Source text: as §1

For test [3], the system named is ced-1 (e1735); egl-1 (n1084 n3082) animals. Put plainly: in vivo cell killing: cell corpses in four-fold transgenic embryos after heat-shock expression of EGL-1 fragments. Also on record: species or system C. elegans. The following applies: anterior head region of four-fold transgenic embryos; heat-shock promoter expression. The procedure: In this example, the ability of EGL-1 mutants to disrupt the CED-4/CED-9 complex was tested. […] To examine this scenario, constructs were injected into ced-1 (e1735); egl-1 (n1084 n3082) animals that direct expression of various EGL-1 fragments under the control of the C. elegans heat-shock promoters. Cell corpses were scored in the anterior head region of four-fold transgenic embryos after the heat-shock treatment.

Test [4] addresses T3, CED-9 (construct not stated) (Caenorhabditis elegans, UniProt P41958 1-251, limits assumed).
T3 construct: Also stands for the worm's own CED-9 in the in vivo rows
T3 sequence (looked up): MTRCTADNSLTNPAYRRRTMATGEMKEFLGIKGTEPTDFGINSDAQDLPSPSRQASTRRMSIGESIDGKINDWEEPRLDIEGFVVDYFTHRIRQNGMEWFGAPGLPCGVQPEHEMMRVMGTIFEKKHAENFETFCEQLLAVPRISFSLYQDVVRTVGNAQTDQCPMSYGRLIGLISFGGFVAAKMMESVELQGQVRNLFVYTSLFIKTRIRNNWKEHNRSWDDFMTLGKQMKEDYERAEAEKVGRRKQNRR
Put plainly: GST-mediated pull-down. The text has this: This example describes the biochemical and functional analysis of EGL-1/CED-9 interactions. To corroborate the structural analysis, mutations on the interface residues of EGL-1 were examined for their potential to weaken or disrupt its binding to CED-9. Various mutant EGL-1 fragments were purified as fusion proteins with glutathione S-transferase (GST) and their interactions with CED-9 were investigated using a GST-mediated pull-down assay. […] Strikingly, substitution of Gly55 by a negatively charged glutamate residue was not sufficient to abolish interaction with CED-9.

The target of test [5] is T4, CED-9 protein (residues 1-251) (Caenorhabditis elegans, UniProt P41958 1-251).
T4 construct: range 1-251
T4 sequence (looked up): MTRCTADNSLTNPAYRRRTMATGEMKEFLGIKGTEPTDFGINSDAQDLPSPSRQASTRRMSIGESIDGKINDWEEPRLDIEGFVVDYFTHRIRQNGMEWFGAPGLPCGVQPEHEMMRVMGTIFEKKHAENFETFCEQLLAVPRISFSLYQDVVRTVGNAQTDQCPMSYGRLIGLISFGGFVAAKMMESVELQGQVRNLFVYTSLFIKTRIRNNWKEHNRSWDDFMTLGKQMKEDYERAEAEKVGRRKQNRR
Briefly: EGL-1 missense mutants tested for interaction with CED-9 (Example 1).

Test [6] has as its target T4, CED-9 protein (residues 1-251). Briefly: binding test of GST-EGL-1 fragments with CED-9 (1-251). On the procedure: This example describes the characterization of EGL-1/CED-9 interactions. To determine the mechanism of CED-9 recognition by EGL-1, the EGL-1/CED-9 interaction was characterized. Various fragments of the GST-EGL-1 protein were evaluated for their abilities to interact with the CED-9 protein (residues 1-251). […] In contrast, the C-terminal half (residues 45-87 or 45-91) formed a stable complex with CED-9.

Where no end group is shown, it is not given here.

Consider “full-length EGL-1 protein (from UniProt O61667 16-106)”, for which the Kd in the test with CED-9 (residues 68-251) [1] stood at 6.7 nM.

B1: full-length EGL-1 protein: full-length pro-apoptotic BH-3 Only protein EGL-1 of C. elegans (protein, UniProt O61667 1-106, looked up)
chain: MLMLTFASTSSDLLPMSNVFDVQSSVFYNEKNMFYSSSQDFSSCEDSSQFADDSGFFDDSEISSIGYEIGSKLAAMCDDFDAQMMSYSAHASDRSLFHRLLDFFAF
modifications: full-length
notes: full-length pro-apoptotic BH-3 Only protein EGL-1 of C. elegans
On to B1, for which the Kd with CED-9 (residues 68-251) [2] came to 6.7 nM. Also, the “cell killing (cell corpses induced)” value in test [3] is listed as “induced robust cell killing”.
For the molecule SSIGYEIGSKLAAMCDDFDAQMMSY (peptide, UniProt O61667 63-87, looked up, range 63-87; Used in ITC) [EGL-1 fragment (residues 48-72)], in the test with CED-9 (residues 68-251) [1], the Kd was 6.4 nM.

B2: GST-EGL-1 fragment double mutant (mut2, G55E/F65A) (other, UniProt O61667 60-102, looked up)
chain: SEISSIGYEIESKLAAMCDDADAQMMSYSAHASDRSLFHRLLD
modifications: also: GST fusion in pull-down, placement and linker not given here
notes: GST fusion in the pull-down; also called EGL-1 (G55E/F65A); EGL-1 double mutant; not shown: glutathione S-transferase (GST) fusion partner
In the case of B2, the binding result in test [4] and in test [5] was “no binding” in each case.

B3: GST-EGL-1 fragment quadruple mutant (mut4, G55E/L58A/F65A/M69A) (other, UniProt O61667 60-102, looked up)
chain: SEISSIGYEIESKAAAMCDDADAQAMSYSAHASDRSLFHRLLD
modifications: also: GST fusion in pull-down, placement and linker not given here
notes: GST fusion in the pull-down; not shown: glutathione S-transferase (GST) fusion partner
On to B3, for which the binding result in test [4] is “no binding”.

B4: GST-EGL-1 N-terminal half (residues 1-45) (other, UniProt O61667 16-60, looked up)
chain: {GST}-MSNVFDVQSSVFYNEKNMFYSSSQDFSSCEDSSQFADDSGFFDDS
notes: GST placed at the N-terminus by the printed name 'GST-EGL-1'; also called N-terminal half (residues 1-45) of EGL-1; not shown: glutathione S-transferase (GST) fusion partner
With B4, in test [6], the binding result was “no binding”.

The values above are taken from US20080138847A1, “Bcl-2 family member and BH-3 only proteins for use in development of peptidomimetics” (priority 2004, published 2008).
